Results on 14 molecules are retold here after patent US5780265, “Kunitz type plasma kallikrein inhibitors” (Genentech, Inc., dated 1998).

Numbering of substitutions follows the chain as printed. Where two headings read alike, the source gives them in different places. Where no end group is shown, it is not given here.

Experiment [1] deals with T1, Human plasma kallikrein (human, UniProt P03952). Briefly: enzyme inhibition of plasma kallikrein (apparent Ki*).
Experiment [2] has as its target T1, Human plasma kallikrein. Briefly: enzyme inhibition of plasma kallikrein, substrate S2302, fit to the tight-binding equation (apparent Ki*).
In experiment [3] the target is T2, Human Factor XIa (human, UniProt P03951). The experiment in a line: enzyme inhibition of FXIa, chromogenic substrate, fit to the tight-binding equation (apparent Ki*).
Experiment [4] deals with T2, Human Factor XIa. The description is as above. This is another data set of the same source.
The target of experiment [5] is T1, Human plasma kallikrein. The experiment in a line: enzyme inhibition of plasma kallikrein, substrate S2302, fit to the tight-binding equation (apparent Ki*). This is another data set of the same source.
Method: Determination of the apparent equilibrium dissociation constants of selected Kunitz domains with plasma kallikrein and FXIa. The inhibitory activity is expressed as the fractional activity (inhibited rate/uninhibited rate) at varying inhibitor concentrations. The apparent equilibrium dissociation constants were determined by nonlinear regression analysis of the data to equation 1.
Plots of the fractional rate versus inhibitor concentration were fit by nonlinear regression analysis to Equation 1 to determine apparent equilibrium dissociation constants (K_i^*):
The target in experiment [6] is T1, Human plasma kallikrein. The experiment in a line: enzyme inhibition of plasma kallikrein (apparent Ki*), against APPI.
Experiment [7] concerns the target T1, Human plasma kallikrein. The experiment in a line: enzyme inhibition of plasma kallikrein (apparent Ki*), against BPTI.

B1: KALI-D (designed binder)
chain: VREVCSEQAEDGHCRAAHPRWYFDVTEGKCAPFFYGGCGGNRNNFDTEEYCAAVCGSA
As for B1, the values for the Ki with Human plasma kallikrein [1], with Human plasma kallikrein [2] and with Human Factor XIa [3] were < 0.05 nM, 0.025 nM and 5.7 nM, respectively.

B2: KALI-46 (designed binder)
chain: B1 chain with D11E, H13R, A17S, H18I, P19L
B2: the Ki with Human Factor XIa [4] was 0.3 nM; with Human plasma kallikrein [5], 0.175 nM.

B3: KALI-DY (designed binder)
chain: B1 chain with F34Y
With B3, the “fold better inhibition than APPI” value with Human plasma kallikrein [6] is > 10000 fold. Also, in the experiment with Human plasma kallikrein [7], the “fold more potent than BPTI” value turned out to be 3000 fold. Also, the Ki in the experiment with Human plasma kallikrein [1] is < 0.05 nM; in the experiment with Human plasma kallikrein [2], 0.015 nM; in the experiment with Human Factor XIa [3], 8.2 nM.

B4: KALI-PY (designed binder)
chain: B1 chain with D11P, F34Y
modifications: not fully specified (bridges); cysteine pairing not given here
For the molecule B4, the Ki is 0.136 nM in the experiment with Human plasma kallikrein [2] and 11.7 nM with Human Factor XIa [3].

B5: KALI-30 (designed binder)
chain: B1 chain with D11E, H18I, P19L
In the case of B5, the Ki worked out at 0.4 nM with Human Factor XIa [4] and 0.258 nM with Human plasma kallikrein [5].

B6: KALI-DV (designed binder)
chain: B1 chain with F34V
Take B6: the Ki in the experiment with Human plasma kallikrein [1] was < 0.05 nM; in the experiment with Human plasma kallikrein [2], 0.043 nM; with Human Factor XIa [3] it was 1.3 nM.

B7: KALI-13 (designed binder)
chain: B1 chain with D11S, H18I
Take B7: the Ki with Human Factor XIa [4] worked out at 1.4 nM; in the experiment with Human plasma kallikrein [5], 0.203 nM.

B8: KALI-EV (designed binder)
chain: B1 chain with D11E, F34V
As to B8, the Ki with Human plasma kallikrein [2] was 0.117 nM.

B9: KALI-E (designed binder)
chain: B1 chain with D11E
B9: the Ki worked out at 0.103 nM with Human plasma kallikrein [2] and 4.5 nM with Human Factor XIa [3].

B10: KALI-48 (designed binder)
chain: B1 chain with D11T, H18I
For B10, the Ki came out at 0.7 nM with Human Factor XIa [4] and 0.209 nM with Human plasma kallikrein [5].

B11: KALI-PV (designed binder)
chain: B1 chain with D11P, F34V
On to B11, for which the Ki with Human plasma kallikrein [2] was found to be 0.166 nM; with Human Factor XIa [3], 4.1 nM.

B12: KALI-EY (designed binder)
chain: B1 chain with D11E, F34Y
For B12, the Ki was found to be 0.98 nM in the experiment with Human plasma kallikrein [2] and 7.3 nM in the experiment with Human Factor XIa [3].

B13: KALI-P (designed binder)
chain: B1 chain with D11P
As for B13, the Ki with Human plasma kallikrein [2] came out at 0.2 nM; in the experiment with Human Factor XIa [3] it was 13.8 nM.

B14: KALI-8 (designed binder)
chain: B1 chain with D11L, H18I
Turning to B14, the Ki in the experiment with Human Factor XIa [4] came out at 0.3 nM; with Human plasma kallikrein [5] it was 0.074 nM.
